Numbered stars: 1 amine (or outer) side, 2 acyl side, 3 side chain; on linkers, the order of the positions; unused ones are H or OH. Bridge positions count the residues as written; N and C are the ends. Side chains are listed from the residue outwards. Ends that are not written are not given here. * marks the point of attachment. C20 diacid = O=C(O)CCCCCCCCCCCCCCCCCCC(=O)*; γGlu = O=C(O)[C@H](CCC(=O)[*:2])N[*:1]; AEEA = NCCOCCOCC(=O)O
T1: human amylin receptor (amylin 3(a) receptor: human calcitonin receptor with RAMP-3) (human, UniProt P30988 25-474; O60896 24-148)
T1 construct: whole, on cells; also called hAmylin-R; hAmylinR
T1 sequence (looked up) 1: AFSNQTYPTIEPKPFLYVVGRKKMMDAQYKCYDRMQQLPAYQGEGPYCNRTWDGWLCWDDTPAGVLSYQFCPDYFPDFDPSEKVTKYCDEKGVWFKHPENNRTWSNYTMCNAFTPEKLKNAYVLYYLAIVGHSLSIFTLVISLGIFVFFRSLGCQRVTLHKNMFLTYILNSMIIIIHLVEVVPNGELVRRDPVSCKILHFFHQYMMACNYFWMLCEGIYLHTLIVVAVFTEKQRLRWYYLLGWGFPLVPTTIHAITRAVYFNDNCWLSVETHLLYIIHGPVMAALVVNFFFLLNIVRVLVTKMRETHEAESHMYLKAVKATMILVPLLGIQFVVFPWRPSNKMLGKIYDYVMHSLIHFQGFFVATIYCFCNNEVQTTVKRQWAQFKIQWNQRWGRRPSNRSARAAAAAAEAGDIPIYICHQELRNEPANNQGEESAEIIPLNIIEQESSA
T1 sequence (looked up) 2: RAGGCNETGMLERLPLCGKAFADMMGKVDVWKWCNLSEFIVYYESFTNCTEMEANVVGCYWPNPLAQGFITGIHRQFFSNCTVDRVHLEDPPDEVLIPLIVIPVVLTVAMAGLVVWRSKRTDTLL

B1: N^ε1-[2-[2-[2-[[(4S)-4-carboxy-4-(19-carboxynonadecanoylamino)butanoyl]amino]ethoxy]ethoxy]acetyl]-[Gly14,Arg17,Pro21,Pro27,Pro31]-h-amylin (peptide)
peptide: K([AEEA-γGlu-C20 diacid])CNTATCATQRLAGFLRHSSPNFGAIPSSTPVGSNTY-NH2
modifications: disulfide 2-7; N-terminus assumed
SMILES: CC[C@H](C)[C@H](NC(=O)[C@H](C)NC(=O)CNC(=O)[C@H](Cc1ccccc1)NC(=O)[C@H](CC(N)=O)NC(=O)[C@@H]1CCCN1C(=O)[C@H](CO)NC(=O)[C@H](CO)NC(=O)[C@H](Cc1c[nH]cn1)NC(=O)[C@H](CCCNC(=N)N)NC(=O)[C@H](CC(C)C)NC(=O)[C@H](Cc1ccccc1)NC(=O)CNC(=O)[C@H](C)NC(=O)[C@H](CC(C)C)NC(=O)[C@H](CCCNC(=N)N)NC(=O)[C@H](CCC(N)=O)NC(=O)[C@@H](NC(=O)[C@H](C)NC(=O)[C@@H]1CSSC[C@H](NC(=O)[C@@H](N)CCCCNC(=O)COCCOCCNC(=O)CC[C@H](NC(=O)CCCCCCCCCCCCCCCCCCC(=O)O)C(=O)O)C(=O)N[C@@H](CC(N)=O)C(=O)N[C@@H]([C@@H](C)O)C(=O)N[C@@H](C)C(=O)N[C@@H]([C@@H](C)O)C(=O)N1)[C@@H](C)O)C(=O)N1CCC[C@H]1C(=O)N[C@@H](CO)C(=O)N[C@@H](CO)C(=O)N[C@H](C(=O)N1CCC[C@H]1C(=O)N[C@H](C(=O)NCC(=O)N[C@@H](CO)C(=O)N[C@@H](CC(N)=O)C(=O)N[C@H](C(=O)N[C@@H](Cc1ccc(O)cc1)C(N)=O)[C@@H](C)O)C(C)C)[C@@H](C)O
notes: also called 71; compound 71
B2: N^ε1-[2-[2-[2-[[(4S)-4-carboxy-4-(19-carboxynonadecanoylamino)butanoyl]amino]ethoxy]ethoxy]acetyl]-[His14,Arg17,Pro21,Pro27,Pro31]-h-amylin (peptide)
peptide: K([AEEA-γGlu-C20 diacid])CNTATCATQRLAHFLRHSSPNFGAIPSSTPVGSNTY-NH2
modifications: disulfide 2-7; N-terminus assumed
SMILES: CC[C@H](C)[C@H](NC(=O)[C@H](C)NC(=O)CNC(=O)[C@H](Cc1ccccc1)NC(=O)[C@H](CC(N)=O)NC(=O)[C@@H]1CCCN1C(=O)[C@H](CO)NC(=O)[C@H](CO)NC(=O)[C@H](Cc1c[nH]cn1)NC(=O)[C@H](CCCNC(=N)N)NC(=O)[C@H](CC(C)C)NC(=O)[C@H](Cc1ccccc1)NC(=O)[C@H](Cc1c[nH]cn1)NC(=O)[C@H](C)NC(=O)[C@H](CC(C)C)NC(=O)[C@H](CCCNC(=N)N)NC(=O)[C@H](CCC(N)=O)NC(=O)[C@@H](NC(=O)[C@H](C)NC(=O)[C@@H]1CSSC[C@H](NC(=O)[C@@H](N)CCCCNC(=O)COCCOCCNC(=O)CC[C@H](NC(=O)CCCCCCCCCCCCCCCCCCC(=O)O)C(=O)O)C(=O)N[C@@H](CC(N)=O)C(=O)N[C@@H]([C@@H](C)O)C(=O)N[C@@H](C)C(=O)N[C@@H]([C@@H](C)O)C(=O)N1)[C@@H](C)O)C(=O)N1CCC[C@H]1C(=O)N[C@@H](CO)C(=O)N[C@@H](CO)C(=O)N[C@H](C(=O)N1CCC[C@H]1C(=O)N[C@H](C(=O)NCC(=O)N[C@@H](CO)C(=O)N[C@@H](CC(N)=O)C(=O)N[C@H](C(=O)N[C@@H](Cc1ccc(O)cc1)C(N)=O)[C@@H](C)O)C(C)C)[C@@H](C)O
notes: also called 61; compound 61
B3: N^ε1-[2-[2-[2-[[(4S)-4-carboxy-4-(19-carboxynonadecanoylamino)butanoyl]amino]ethoxy]ethoxy]acetyl]-[His14,Arg17,Pro21,Pro27,His34]-h-amylin (peptide)
peptide: K([AEEA-γGlu-C20 diacid])CNTATCATQRLAHFLRHSSPNFGAIPSSTNVGHNTY-NH2
modifications: disulfide 2-7; N-terminus assumed
SMILES: CC[C@H](C)[C@H](NC(=O)[C@H](C)NC(=O)CNC(=O)[C@H](Cc1ccccc1)NC(=O)[C@H](CC(N)=O)NC(=O)[C@@H]1CCCN1C(=O)[C@H](CO)NC(=O)[C@H](CO)NC(=O)[C@H](Cc1c[nH]cn1)NC(=O)[C@H](CCCNC(=N)N)NC(=O)[C@H](CC(C)C)NC(=O)[C@H](Cc1ccccc1)NC(=O)[C@H](Cc1c[nH]cn1)NC(=O)[C@H](C)NC(=O)[C@H](CC(C)C)NC(=O)[C@H](CCCNC(=N)N)NC(=O)[C@H](CCC(N)=O)NC(=O)[C@@H](NC(=O)[C@H](C)NC(=O)[C@@H]1CSSC[C@H](NC(=O)[C@@H](N)CCCCNC(=O)COCCOCCNC(=O)CC[C@H](NC(=O)CCCCCCCCCCCCCCCCCCC(=O)O)C(=O)O)C(=O)N[C@@H](CC(N)=O)C(=O)N[C@@H]([C@@H](C)O)C(=O)N[C@@H](C)C(=O)N[C@@H]([C@@H](C)O)C(=O)N1)[C@@H](C)O)C(=O)N1CCC[C@H]1C(=O)N[C@@H](CO)C(=O)N[C@@H](CO)C(=O)N[C@H](C(=O)N[C@@H](CC(N)=O)C(=O)N[C@H](C(=O)NCC(=O)N[C@@H](Cc1c[nH]cn1)C(=O)N[C@@H](CC(N)=O)C(=O)N[C@H](C(=O)N[C@@H](Cc1ccc(O)cc1)C(N)=O)[C@@H](C)O)C(C)C)[C@@H](C)O
notes: also called 80; compound 80
B4: N^ε1-[2-[2-[2-[[(4S)-4-carboxy-4-(19-carboxynonadecanoylamino)butanoyl]amino]ethoxy]ethoxy]acetyl]-[His14,Arg17,Pro21,Pro27,Arg34]-h-amylin (peptide)
peptide: K([AEEA-γGlu-C20 diacid])CNTATCATQRLAHFLRHSSPNFGAIPSSTNVGRNTY-NH2
modifications: disulfide 2-7; N-terminus assumed
SMILES: CC[C@H](C)[C@H](NC(=O)[C@H](C)NC(=O)CNC(=O)[C@H](Cc1ccccc1)NC(=O)[C@H](CC(N)=O)NC(=O)[C@@H]1CCCN1C(=O)[C@H](CO)NC(=O)[C@H](CO)NC(=O)[C@H](Cc1c[nH]cn1)NC(=O)[C@H](CCCNC(=N)N)NC(=O)[C@H](CC(C)C)NC(=O)[C@H](Cc1ccccc1)NC(=O)[C@H](Cc1c[nH]cn1)NC(=O)[C@H](C)NC(=O)[C@H](CC(C)C)NC(=O)[C@H](CCCNC(=N)N)NC(=O)[C@H](CCC(N)=O)NC(=O)[C@@H](NC(=O)[C@H](C)NC(=O)[C@@H]1CSSC[C@H](NC(=O)[C@@H](N)CCCCNC(=O)COCCOCCNC(=O)CC[C@H](NC(=O)CCCCCCCCCCCCCCCCCCC(=O)O)C(=O)O)C(=O)N[C@@H](CC(N)=O)C(=O)N[C@@H]([C@@H](C)O)C(=O)N[C@@H](C)C(=O)N[C@@H]([C@@H](C)O)C(=O)N1)[C@@H](C)O)C(=O)N1CCC[C@H]1C(=O)N[C@@H](CO)C(=O)N[C@@H](CO)C(=O)N[C@H](C(=O)N[C@@H](CC(N)=O)C(=O)N[C@H](C(=O)NCC(=O)N[C@@H](CCCNC(=N)N)C(=O)N[C@@H](CC(N)=O)C(=O)N[C@H](C(=O)N[C@@H](Cc1ccc(O)cc1)C(N)=O)[C@@H](C)O)C(C)C)[C@@H](C)O
notes: also called 84; compound 84
B5: N^ε1-[2-[2-[2-[[(4S)-4-carboxy-4-(19-carboxynonadecanoylamino)butanoyl]amino]ethoxy]ethoxy]acetyl]-[His14,Arg17,Pro21,Pro27,Pro34]-h-amylin (peptide)
peptide: K([AEEA-γGlu-C20 diacid])CNTATCATQRLAHFLRHSSPNFGAIPSSTNVGPNTY-NH2
modifications: disulfide 2-7; N-terminus assumed
SMILES: CC[C@H](C)[C@H](NC(=O)[C@H](C)NC(=O)CNC(=O)[C@H](Cc1ccccc1)NC(=O)[C@H](CC(N)=O)NC(=O)[C@@H]1CCCN1C(=O)[C@H](CO)NC(=O)[C@H](CO)NC(=O)[C@H](Cc1c[nH]cn1)NC(=O)[C@H](CCCNC(=N)N)NC(=O)[C@H](CC(C)C)NC(=O)[C@H](Cc1ccccc1)NC(=O)[C@H](Cc1c[nH]cn1)NC(=O)[C@H](C)NC(=O)[C@H](CC(C)C)NC(=O)[C@H](CCCNC(=N)N)NC(=O)[C@H](CCC(N)=O)NC(=O)[C@@H](NC(=O)[C@H](C)NC(=O)[C@@H]1CSSC[C@H](NC(=O)[C@@H](N)CCCCNC(=O)COCCOCCNC(=O)CC[C@H](NC(=O)CCCCCCCCCCCCCCCCCCC(=O)O)C(=O)O)C(=O)N[C@@H](CC(N)=O)C(=O)N[C@@H]([C@@H](C)O)C(=O)N[C@@H](C)C(=O)N[C@@H]([C@@H](C)O)C(=O)N1)[C@@H](C)O)C(=O)N1CCC[C@H]1C(=O)N[C@@H](CO)C(=O)N[C@@H](CO)C(=O)N[C@H](C(=O)N[C@@H](CC(N)=O)C(=O)N[C@H](C(=O)NCC(=O)N1CCC[C@H]1C(=O)N[C@@H](CC(N)=O)C(=O)N[C@H](C(=O)N[C@@H](Cc1ccc(O)cc1)C(N)=O)[C@@H](C)O)C(C)C)[C@@H](C)O
notes: also called 68; compound 68
B6: N^ε1-[2-[2-[2-[[(4S)-4-carboxy-4-(19-carboxynonadecanoylamino)butanoyl]amino]ethoxy]ethoxy]acetyl]-[His14,Arg17,Pro21,Pro27]-h-amylin (peptide)
peptide: K([AEEA-γGlu-C20 diacid])CNTATCATQRLAHFLRHSSPNFGAIPSSTNVGSNTY-NH2
modifications: disulfide 2-7; N-terminus assumed
SMILES: CC[C@H](C)[C@H](NC(=O)[C@H](C)NC(=O)CNC(=O)[C@H](Cc1ccccc1)NC(=O)[C@H](CC(N)=O)NC(=O)[C@@H]1CCCN1C(=O)[C@H](CO)NC(=O)[C@H](CO)NC(=O)[C@H](Cc1c[nH]cn1)NC(=O)[C@H](CCCNC(=N)N)NC(=O)[C@H](CC(C)C)NC(=O)[C@H](Cc1ccccc1)NC(=O)[C@H](Cc1c[nH]cn1)NC(=O)[C@H](C)NC(=O)[C@H](CC(C)C)NC(=O)[C@H](CCCNC(=N)N)NC(=O)[C@H](CCC(N)=O)NC(=O)[C@@H](NC(=O)[C@H](C)NC(=O)[C@@H]1CSSC[C@H](NC(=O)[C@@H](N)CCCCNC(=O)COCCOCCNC(=O)CC[C@H](NC(=O)CCCCCCCCCCCCCCCCCCC(=O)O)C(=O)O)C(=O)N[C@@H](CC(N)=O)C(=O)N[C@@H]([C@@H](C)O)C(=O)N[C@@H](C)C(=O)N[C@@H]([C@@H](C)O)C(=O)N1)[C@@H](C)O)C(=O)N1CCC[C@H]1C(=O)N[C@@H](CO)C(=O)N[C@@H](CO)C(=O)N[C@H](C(=O)N[C@@H](CC(N)=O)C(=O)N[C@H](C(=O)NCC(=O)N[C@@H](CO)C(=O)N[C@@H](CC(N)=O)C(=O)N[C@H](C(=O)N[C@@H](Cc1ccc(O)cc1)C(N)=O)[C@@H](C)O)C(C)C)[C@@H](C)O
notes: also called 69; compound 69

The binders below were run against T1, human amylin receptor (amylin 3(a) …) (assay: SPA displacement of 125I-rat amylin, hAmylin 3(a) receptor membranes).
Procedure, shortened: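 One-site competition analysis of SPA counts yielded IC₅₀ as a measure of affinity. Membranes were at 35 ng/μL final; incubation was 120 min at 25° C, pH 7.4.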

| IC50 | Binder |
| --- | --- |
| 0.048 nM | B1 |
| 0.122 nM | B2 |
| 0.29 nM | B3 |
| 0.743 nM | B4 |
| 0.088 nM | B5 |
| 0.133 nM | B6 |

Source: patent publication US20140087995A1 (published 2014)
